These results are taken from the nanobody polyreactivity screen of Harvey et al. (2022).

The nature of this data set: yeast display, Sf9 membrane polyspecificity reagent, FACS + sequencing; frameworks hold sequencing errors. The method in brief: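 Nanobodies came from a synthetic yeast display library in Saccharomyces cerevisiae BJ5465, induced with galactose for 36–48 hours and stained for 1 hour at 4 °C with 10% biotinylated, detergent-solubilized Sf9 membrane reagent. Cells were enriched on streptavidin microbeads and then FACS-sorted, with low and high (top ~1%) gates set on anti-HA fluorescence for expression and streptavidin fluorescence for reagent binding. Each polyreactivity label reflects the gate a clone came from. Genes were amplified by colony PCR, sequenced by MiSeq 2 × 250 and filtered by CDR length.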
Turning to “QVQLEESGAGLVQAGGSLRLSCAASGRTFYRYAMGWYIQAPGKERELVAAITSGDRTYYADSVKGRFTISRDNALNTVYLQMNSLKPEYTAVYYCAARRDYWARYYYWGQGTQVTVSS”, the “polyreactivity (PSR sort gate)” value was “high polyreactivity”. In the case of “QVQLVESGGGLVQAGGSLRLSCAASGFIFVLYSMGWYRQAPGKERELVAGITGSTDTYYADSVKGRFTISRDNAKNTVYLQMNSLKPEDTAVYYCAAGRLRIWYDSWGQGTQVTVSS”, the “polyreactivity (PSR sort gate)” value is “low polyreactivity”. Take “QVQLVESGGGLVQAGGSLRLSCAASGFTFQYKAMGVYRQAPGQERELVAAISRGGGRTYYADSVKGRFTISRDNAKNTVYLQMNSLKPEDTAVYYCNVLNYSSRHYLFSYDYWGQGTQVTVSS”: the “polyreactivity (PSR sort gate)” value is recorded as “high polyreactivity”. As to “QVQLVESGGGLVQAGGSLRLSFPASGSTYFTYAMGWYRQAPGKERELVAAISWSGGTTYYADSVKGRFTISRDNAKNTVYLQMNSLKPEDTAVYYCASDRAGILKANDYWGKGTQVTVSS”, the “polyreactivity (PSR sort gate)” value is recorded as “low polyreactivity”.

As to “QVQLVESAGGLVQAGGSLRLSCAASGSIFTYYAMGWYIQAPGKERELVAAISSDGGRTFYADSVKGRFTISRDNAKNTVYLQMNSLKPEDTAVYYCAAETNRFPGYGYWGQGTQVTVSS”, the “polyreactivity (PSR sort gate)” value is reported as “low polyreactivity”. For the sequence “QVQLVESGGGLVQAGGSLRLSCAASGITSPSYAMGWYRQAPGKERELVAAISKNGVRTYYADSVKGRFTISRDNAKNTVYLQMNSLKPEDTAVYYCAARYNPLYATLYRRMDYWGQGTQVTVSS”, the “polyreactivity (PSR sort gate)” value was “high polyreactivity”. “QVQLVESGGGLVQAGGSLRLSCAASGFISKYYAMGWYRQAPGKERELVASISRDGSTSYADSVKGRFTISRDNAKNTVYLQMNSLKPEDTAVYYCAAPSYRTRYYYWGQGTQVTVSS”: the “polyreactivity (PSR sort gate)” value was “high polyreactivity”. Then “QVHLVESGGGLVQAGGSLRLSCAASGRIYPYPMGWYRQAPGKERELVAAITSRGGTTYYADSVKGRFTISRDNAKNTDYVQMNSLKPEDTAVYYCNKRPWWWGGDDYWGQGTQVTVSS”, with “low polyreactivity”; and “QVQLVESGGGLVQAGGSLRLICAASGITFPSNTMGWYRQAPGKERELVAAITRGDNTYYADSVKGRFTISRDNAKNTVYLQMNSLKPEYTAVYYCATEGYQIQYEHDYWGQGTIVTVSS”, with “low polyreactivity”. Regarding “QVQLVESGGGLVQAGGSLRLSCAASGSIYSYTMGWYRQAPGKEKELVAAITYSGDSTYYADSVKGRFTISRDNAKNTVYLQMNSLKPDDTAVYYCAKSGTLSEYDYWGQGTQVTVSS”, the “polyreactivity (PSR sort gate)” value is “low polyreactivity”. As to “QVQLVESGVGLVQAGGSLRLSCAASGSIFYSNAMGRYRQAPGKERELVASIRGSGVSTYYADSVKGRFTISRDNAKNTVYLQMNRLKPEDTAVYYCAARYGRSYFGYYYWGQGTQVTVSS”, the “polyreactivity (PSR sort gate)” value is “high polyreactivity”.

Consider “QVQLQESGGGLVQAGGSLRLSCAASGYISLAQTIGWYRQAPGKEREFVASIALGSRTYYTDSVKGSFTISRDNAKTTVYLQMNSLKAEDTAVYYCAARVGASYAHDYWGQGTQVTVSS”, for which the “polyreactivity (PSR sort gate)” value is on record as “low polyreactivity”. For the sequence “QVQLVESGGGLVQAGGSLRLSCAASGITFYRYMGWYRQAPGKERELVASITGRGGSTYYADSVKGRFTISRDNAKNTVYLQMNSLKPEDTAVYYCAAVFPTKSSTWYDYWGQGSQVTVSS”, the “polyreactivity (PSR sort gate)” value is “high polyreactivity”. To “QEQLQESGGGLVQAGCSLRLSCAANGYIFSVEYMGCYCLAPGKEREFVATINYDTSTYYADSVKGRFTISRDNAKNTVYLQMNSLKPEDTAVYYCAAYFYAYRSPGYWGLGTQVTVSS” belongs “high polyreactivity”; to “QVQVVESGGGLVQAGGSLRLSCAASGLTYSYYTMGWYRQAPGKERELVAAITSSSGRTYYADSVKGRITISRDNAKNTVYLQMNSLKPEDTAVYYCAARWSPYDYWGQGTQVTVSS”, “low polyreactivity”. To “QVQLVESGGGLVQAGGSLRLSCADSGRTFSPYAMGWYRQAPGKDRELVAAITSGGRTNFADSVKGRFTISRDNAKNTVYLQMNSLKPEDTAVYYCAARSGRYRWTRFDYWGQGTQVTVSS” belongs “low polyreactivity”; to “QVQLVESGGGLVQAGGSLRLSCAASGFTFAPNPMGWYRPAPGKEWELVAAITRSGGSTYYADSVKGRFTISRDNAKNTVYLQMYSLKPEDTAVYYCNAGRRGSGYVYWGQGTQVTVSS”, “high polyreactivity”. Regarding “QVQLVESGGGLVQAGGSLRLSCAASGFILYYYAMGWYRQAPGKERELVAAISWSGDSTYYADSVKGRFTISRDNAKNTVYLQMNSLKPEDTAVYYCAATWQLTHRYYWGQGTQVTVSS”, the “polyreactivity (PSR sort gate)” value is given as “low polyreactivity”. To “QVQLVETGGGLVQAGGSLRLSCAASGITFRGYAMGWYRQAPGKERELVAAISGSGGTTYYADSVKGRFTISRDNAKNTVYLQMNSLKPEDTAVYYCNAKAVRGRYVWYDYWGQGTQVTVSS” belongs “high polyreactivity”.

“QVQLVESGGGLVQAGGSLRLSCAASGSTFVLYAMGWYRQAPGKERELVAVISWSGGSTYYADSVKGRFTISRDNAKNTVYLQMNSLKPEDTAVYYCAKRYRVSYYPYADPYGYWGQGTQVTVSS”: the “polyreactivity (PSR sort gate)” value is given as “low polyreactivity”. Take “QVQLVESGGGLVQAGGSLRLSCAASGGTFHKYDMGWYRQAPGKERELVAYADSVKGRFTISRDNAKNTVYLQMNSLKPEDTAVYYCNADWQSYGYLCHSSLYYYWGQGTQVTVSS”: the “polyreactivity (PSR sort gate)” value was “low polyreactivity”. For the sequence “QVQLVESGGGLVQAGGSLRLSCAASVFIFGYNAMGWYRQAPGKERELVAAISSSGGSTYYADSVKGRFTISRDNAKNTVYLQMNSLKPEDTAVYYCAARPVALRKYDYWGQGTQVTVSS”, the “polyreactivity (PSR sort gate)” value is reported as “low polyreactivity”. With “QVQLVESGRGIVQAGGSLRLSCAASGLTFSSNAMVWYRQAPGKEREMVAVITNGGSTNYADSVKGRFTISRDNAKNTVYLQMNSLKPEDTAVYYCAKDGGPAQDIGMDYWGQGTQVTVSS”, the “polyreactivity (PSR sort gate)” value was “low polyreactivity”. Then “QVQLVESGGGLVQAGGSLRLSCAASGIIFYPYAMGWYSLAPGKERELVAAISQSGGTTSYADSVKGRFTISRDNAKNTVYLQMNSLKPEDTAVYYCARRVSTRKRYYYWGQGTQVTVSS”, with “high polyreactivity”. In the case of “QDQLVQSGGGLVQAGGSLRLSCAASGRTFGKYAMGWYRQAPGKERELVAAITGGGGTKYADSVKGRFTISGDNAKNSVYLQMNSLKPEDTAVYYCAAASGSRRHGYWGQGTQVTVSS”, the “polyreactivity (PSR sort gate)” value is recorded as “high polyreactivity”.

Regarding “QVQLVESGGGLVQAGGSLRLSCAASGRIFWGYAMGWYRQAPGKERELVAGITSGGITNYADSVKGRFTISRDNAKNTVYLQMNSLKPEDTAVYYCNKDFWGYPRVRYYYWGQGTQVNVSS”, the “polyreactivity (PSR sort gate)” value is recorded as “high polyreactivity”. In the case of “QVQLVESGGGLVQAGGSLRLSCAASGRILWYYTMGWYRQAPGKERELVAAISSGGRTHYADSVKGRFTISRDNAKNTVYLQMNSLKPVDTAVYYCAAKYGWGRFNYDYWGQGTQVTVSS”, the “polyreactivity (PSR sort gate)” value is on record as “high polyreactivity”. On to “QVQLVESGGGLVQAGGSLRLSCAASGSTFYNYAMGWYRQAPGKERELVAAISSSGGRTYYADSVKGRFTISRDNAKNTVYLQMNSLKPEDTAVYYCAASGRKNGMNYWGQGTQVTVSS”, for which the “polyreactivity (PSR sort gate)” value was “high polyreactivity”. To “QVQLVESGGGLVQAGGSLRLSCAASGRTFGYYGMGWYRQAPGKERELVAAITGSGGSTYYADSVKGRFTISRDNAKNTVYLQMNSLKPEDTAVYYCAATYLSRWTLYDYWGQGTQVTVSS” belongs “high polyreactivity”. To “QVQLVESGGGLVQAGGSLRLSCAASGSTFIIYAMGWYRQAPGKERELVAAITWRGGTTYYADSVKGRFTISRDNAKNTVYLQMNSLKPEDTAVYYCNAKFGYPFVDYDDYWGQGTKVTVSS” belongs “low polyreactivity”. Take “QVQLVESGGGLVQAGGSLRLSCAASGLTFIRYTRGWYRQAPGKDRELVAAINWSGDSTYYADSVKGRFTISLDNAKITVYLQMNSLKPEDTAVYYFNARRPRFRYDYWGQGTQVTVSW”: the “polyreactivity (PSR sort gate)” value was “high polyreactivity”. On to “QVQLVESGGGLVQAGGSLRLSCAASGIIYTTNAMGWYRQAPGKERELVAAIRRSGSTYYADSVKGRFTISRDNAKNNVYLQMNSLKPEDTAVYYCNAKVHYGSRGDYWGQGTQLTVSS”, for which the “polyreactivity (PSR sort gate)” value is reported as “low polyreactivity”. As to “QVQLVESGGGLVQAGGSLRLSCAASGRIFGVYAMGWYRQAPGKERELVATIRSSGTRTNYADSVKGRFTISRDNAKNTVYLQMNSLKPEDTAVYYCAAGGRPYKLDFTRSDYWGQGTQVTVSS”, the “polyreactivity (PSR sort gate)” value is given as “low polyreactivity”. To “QVQLVESGGGLVQAGGSLRLRCAASGFISGYNTMGWYRQAAGKEMEFVAAISVSGGRTYYADSVKGRFTFSRDNAKNTVYLQMNSLKPEDTAVYYCAGRYWSWRSFKVDYWGQGTQVTVSS” belongs “high polyreactivity”; to “QVQLVESGGGLVQAGGSLRLSCAASGSTFKAYAMGWYRQAPGKEMELVAVITADGSTSTHYADSVKGRFTISRDNAKNTVSLQMNSLNPEDTAVYYCAAGSPYYSERYYYWGQGTQVTVSS”, “low polyreactivity”.

On to “QVQLVESGGGLVQAGGSLRLSCAASGSIFVPYAMGWYRQAPGKERELVAVITSGGSTYYADSVKGRFTISRDNAKNTVFLQMNSLKPEDTAVYYCAVDGGEFSSYGYWGQGTQVTVSS”, for which the “polyreactivity (PSR sort gate)” value is on record as “low polyreactivity”. Then “QVQLVESGGGLVQAGCSLRLSCAASGSISSFYAMGWYRQAPGKERELVAGITSGGSTNYADSVKGRFTISRDNAKNTVYLQMNSLKPEDTAVYYCAAVYKGAGTHFDVFVKEFDYWGLGTQVTVSS”, with “low polyreactivity”. Turning to “QVQLVESGGGLVQAGGSLRLSCAASGRIFYPYAMGWYRQAPGKERELVAAITTSSARTYYADSVKGRFTISRDNAKNTVYLQMNSLKPEDTAVYYCAVKRGYYTTYRGYGYWGQGTQVTVSS”, the “polyreactivity (PSR sort gate)” value is on record as “high polyreactivity”. “QDQLVESGGGLVQAGGSLRLSCAASGFTFGTYAMGWYRQAPGKERELVAAISARGGSTYYADSVKGRFTISRDNAKNTVYLQMNSLKPEDTAVYYCAAYYGRHVTPPTGYDYWGQGTQVTVSS”: the “polyreactivity (PSR sort gate)” value is on record as “high polyreactivity”. Consider “QVQLVESGGGLVQAGGSLRLSCAASGSTFGYNAMGWYRQAPGKERELVAAIRISGGTTYYADSVKGRFTSSRDNAKNTVYLQMNSPKPSDTAVYYCAAGTAGTTGSPKFSGYGYDYWGQGTQVTVSS”, for which the “polyreactivity (PSR sort gate)” value is “low polyreactivity”.

Turning to “QVQLVESGGGLVQAGGSLRLSCAASGSTFLRNAMGWYRQAPGKERELVAAISLGSGSTYYADSVKGRFTISRDNAKNTVYLQMNSLKPEDTAVYYCAADVSRWLDYGYDYWGQVTQVTVSS”, the “polyreactivity (PSR sort gate)” value was “low polyreactivity”.
